Earlier results as cited in article PMC5744648.
Blank lines part the entries; values can stand above or below the substance they belong to.

Tests used:
[1] = target: CMKLR1 (Chemerin1) (Homo sapiens) (UniProt Q99788); test: radioligand
[2] = target: GPR1 (Chemerin2) (Homo sapiens) (UniProt P46091); test: radioligand binding
[3] = target: GPR1 (Chemerin2) (Homo sapiens) (UniProt P46091); test: radioligand
[4] = target: CMKLR1 (Chemerin1) (Mus musculus) (UniProt P97468); test: radioligand binding
Chain of CMKLR1 (Chemerin1) (Mus musculus) (P97468 whole entry): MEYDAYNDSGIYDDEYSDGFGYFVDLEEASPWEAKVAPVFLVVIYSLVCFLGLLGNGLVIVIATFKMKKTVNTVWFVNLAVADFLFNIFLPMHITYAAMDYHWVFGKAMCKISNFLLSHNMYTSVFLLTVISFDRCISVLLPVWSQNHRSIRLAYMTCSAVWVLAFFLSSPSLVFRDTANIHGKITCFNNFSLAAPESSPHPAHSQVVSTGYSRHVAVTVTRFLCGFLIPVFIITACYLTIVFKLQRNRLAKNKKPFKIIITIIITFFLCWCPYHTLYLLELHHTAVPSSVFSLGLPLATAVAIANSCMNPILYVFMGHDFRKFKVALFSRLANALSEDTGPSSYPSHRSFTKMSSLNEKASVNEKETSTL

Chain of Chemerin 21-157 (Q99969 21-157): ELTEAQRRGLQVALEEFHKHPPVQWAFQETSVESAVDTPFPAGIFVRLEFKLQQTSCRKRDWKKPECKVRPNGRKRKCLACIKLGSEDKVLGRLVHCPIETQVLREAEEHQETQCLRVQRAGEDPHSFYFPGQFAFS
Chain of CMKLR1 (Chemerin1) (Homo sapiens) (Q99788 whole entry): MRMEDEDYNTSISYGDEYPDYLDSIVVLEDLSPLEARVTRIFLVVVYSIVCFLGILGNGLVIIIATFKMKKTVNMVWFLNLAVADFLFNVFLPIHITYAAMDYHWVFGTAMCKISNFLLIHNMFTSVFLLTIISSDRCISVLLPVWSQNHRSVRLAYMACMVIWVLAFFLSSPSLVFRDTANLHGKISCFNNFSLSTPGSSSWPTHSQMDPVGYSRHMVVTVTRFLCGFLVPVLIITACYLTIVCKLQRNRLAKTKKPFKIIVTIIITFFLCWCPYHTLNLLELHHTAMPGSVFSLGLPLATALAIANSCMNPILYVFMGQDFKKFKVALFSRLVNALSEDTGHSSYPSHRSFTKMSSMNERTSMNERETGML
Chain of GPR1 (Chemerin2) (Homo sapiens) (P46091 whole entry): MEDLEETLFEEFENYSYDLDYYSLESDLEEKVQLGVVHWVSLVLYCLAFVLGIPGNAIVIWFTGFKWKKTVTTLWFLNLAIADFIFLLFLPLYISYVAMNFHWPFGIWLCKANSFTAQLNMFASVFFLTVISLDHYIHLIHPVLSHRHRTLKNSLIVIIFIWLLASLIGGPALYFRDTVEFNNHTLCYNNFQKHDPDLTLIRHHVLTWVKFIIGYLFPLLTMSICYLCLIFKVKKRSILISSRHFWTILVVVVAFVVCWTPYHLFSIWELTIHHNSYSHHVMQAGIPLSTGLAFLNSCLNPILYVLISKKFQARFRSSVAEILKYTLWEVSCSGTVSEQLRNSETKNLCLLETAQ
Chain of Chemerin C9 peptide 149-157 (Q99969 whole entry, looked up, tested part not stated): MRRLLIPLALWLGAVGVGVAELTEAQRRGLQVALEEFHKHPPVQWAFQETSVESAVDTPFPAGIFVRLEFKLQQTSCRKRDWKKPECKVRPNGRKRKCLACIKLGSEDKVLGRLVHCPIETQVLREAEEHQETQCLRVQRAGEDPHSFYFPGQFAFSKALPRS
Chain of Chemerin 21-148 (Q99969 21-148): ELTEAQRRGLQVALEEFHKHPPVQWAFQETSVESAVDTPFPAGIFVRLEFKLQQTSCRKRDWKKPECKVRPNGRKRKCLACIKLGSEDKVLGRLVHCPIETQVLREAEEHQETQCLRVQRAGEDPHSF

Kd [1]: 0.88 nM
Kd [2]: 0.21 nM
Substance: Chemerin 21-157 (from UniProt Q99969)

Kd [1]: 22 nM
Substance: Tyr-[Phe149]-chemerin146-157 146-157 (from UniProt Q99969)

Kd [3]: 5.3 nM
Substance: Chemerin C9 peptide 149-157 (from UniProt Q99969)

Kd [4]: 1.2 nM
Substance: Chemerin 21-148 (from UniProt Q99969)
